B1: NLGN3 (receptor, human, UniProt Q9NZ94 38-848, looked up)
cell-surface-expressed binding partner: QAPAPTVNTHFGKLRGARVPLPSEILGPVDQYLGVPYAAPPIGEKRFLPPEPPPSWSGIRNATHFPPVCPQNIHTAVPEVMLPVWFTANLDIVATYIQEPNEDCLYLNVYVPTEDVKRISKECARKPNKKICRKGGSGAKKQGEDLADNDGDEDEDIRDSGAKPVMVYIHGGSYMEGTGNMIDGSILASYGNVIVITLNYRVGVLGFLSTGDQAAKGNYGLLDQIQALRWVSENIAFFGGDPRRITVFGSGIGASCVSLLTLSHHSEGLFQRAIIQSGSALSSWAVNYQPVKYTSLLADKVGCNVLDTVDMVDCLRQKSAKELVEQDIQPARYHVAFGPVIDGDVIPDDPEILMEQGEFLNYDIMLGVNQGEGLKFVEGVVDPEDGVSGTDFDYSVSNFVDNLYGYPEGKDTLRETIKFMYTDWADRDNPETRRKTLVALFTDHQWVEPSVVTADLHARYGSPTYFYAFYHHCQSLMKPAWSDAAHGDEVPYVFGVPMVGPTDLFPCNFSKNDVMLSAVVMTYWTNFAKTGDPNKPVPQDTKFIHTKANRFEEVAWSKYNPRDQLYLHIGLKPRVRDHYRATKVAFWKHLVPHLYNLHDMFHYTSTTTKVPPPDTTHSSHITRRPNGKTWSTKRPAISPAYSNENAQGSWNGDQDAGPLLVENPRDYSTELSVTIAVGASLLFLNVLAFAALYYRKDKRRQEPLRQPSPQRGAGAPELGAAPEEELAALQLGPTHHECEAGPPHDTLRLTALPDYTLTLRRSPDDIPLMTPNTITMIPNSLVGLQTLHPYNTFAAGFNSTGLPHSHSTTRV
notes: expressed on cells; also called NLGN3 expressed on cells
B2: FLRT3 (receptor, human, UniProt Q9NZU0 29-528, looked up)
soluble query ectodomain: KSCPSVCRCDAGFIYCNDRFLTSIPTGIPEDATTLYLQNNQINNAGIPSDLKNLLKVERIYLYHNSLDEFPTNLPKYVKELHLQENNIRTITYDSLSKIPYLEELHLDDNSVSAVSIEEGAFRDSNYLRLLFLSRNHLSTIPWGLPRTIEELRLDDNRISTISSPSLQGLTSLKRLVLDGNLLNNHGLGDKVFFNLVNLTELSLVRNSLTAAPVNLPGTNLRKLYLQDNHINRVPPNAFSYLRQLYRLDMSNNNLSNLPQGIFDDLDNITQLILRNNPWYCGCKMKWVRDWLQSLPVKVNVRGLMCQAPEKVRGMAIKDLNAELFDCKDSGIVSTIQITTAIPNTVYPAQGQWPAPVTKQPDIKNPKLTKDHQTTGSPSRKTITITVKSVTSDTIHISWKLALPMTALRLSWLKLGHSPAFGSITETIVTGERSEYLVTALEPDSPYKVCMVPMETSNLYLFDETPVCIETETAPLRMYNPTTTLNREQEKEPYKNPNLP
modifications: biotinylated
notes: extracellular domain; also called soluble query

How the values were obtained:
Experiment in all cases: cell surface interaction assay: query ECD tetramerised with fluorescent streptavidin on transfected cells, immunofluorescence
[1] = target: T1, MDGA1 (human, UniProt Q8NFP4, biotinylated)
T1 construct: extracellular domain; also called MAM domain-containing glycosylphosphatidylinositol anchor protein 1; soluble query
T1 sequence (soluble query ectodomain, looked up): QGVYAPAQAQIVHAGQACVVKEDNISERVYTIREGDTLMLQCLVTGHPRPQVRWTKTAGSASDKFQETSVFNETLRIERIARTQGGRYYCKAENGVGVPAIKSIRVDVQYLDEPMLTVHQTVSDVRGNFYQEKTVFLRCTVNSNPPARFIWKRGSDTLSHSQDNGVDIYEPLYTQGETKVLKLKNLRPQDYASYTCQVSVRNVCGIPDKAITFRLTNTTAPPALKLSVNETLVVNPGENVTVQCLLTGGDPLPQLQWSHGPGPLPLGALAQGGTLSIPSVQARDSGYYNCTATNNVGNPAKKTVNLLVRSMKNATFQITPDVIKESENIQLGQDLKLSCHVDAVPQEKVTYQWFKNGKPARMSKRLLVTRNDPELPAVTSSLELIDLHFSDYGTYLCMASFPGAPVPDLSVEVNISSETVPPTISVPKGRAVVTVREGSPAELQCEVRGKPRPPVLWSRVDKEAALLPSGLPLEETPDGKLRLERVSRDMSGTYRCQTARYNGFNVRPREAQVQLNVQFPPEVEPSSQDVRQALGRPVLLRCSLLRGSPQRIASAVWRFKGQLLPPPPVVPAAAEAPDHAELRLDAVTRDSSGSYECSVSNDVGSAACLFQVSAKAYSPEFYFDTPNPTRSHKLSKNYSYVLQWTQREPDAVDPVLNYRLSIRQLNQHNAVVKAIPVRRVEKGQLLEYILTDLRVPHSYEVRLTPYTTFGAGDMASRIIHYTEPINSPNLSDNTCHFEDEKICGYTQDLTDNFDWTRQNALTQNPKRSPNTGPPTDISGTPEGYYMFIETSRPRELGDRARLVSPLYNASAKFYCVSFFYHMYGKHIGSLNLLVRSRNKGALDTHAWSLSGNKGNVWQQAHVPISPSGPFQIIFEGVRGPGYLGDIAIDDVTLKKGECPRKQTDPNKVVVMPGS

[2] = target: T2, UNC5A (human, UniProt Q6ZN44)
T2 construct: expressed on cells; also called UNC5A expressed on cells
T2 sequence (cell-surface-expressed binding partner, looked up): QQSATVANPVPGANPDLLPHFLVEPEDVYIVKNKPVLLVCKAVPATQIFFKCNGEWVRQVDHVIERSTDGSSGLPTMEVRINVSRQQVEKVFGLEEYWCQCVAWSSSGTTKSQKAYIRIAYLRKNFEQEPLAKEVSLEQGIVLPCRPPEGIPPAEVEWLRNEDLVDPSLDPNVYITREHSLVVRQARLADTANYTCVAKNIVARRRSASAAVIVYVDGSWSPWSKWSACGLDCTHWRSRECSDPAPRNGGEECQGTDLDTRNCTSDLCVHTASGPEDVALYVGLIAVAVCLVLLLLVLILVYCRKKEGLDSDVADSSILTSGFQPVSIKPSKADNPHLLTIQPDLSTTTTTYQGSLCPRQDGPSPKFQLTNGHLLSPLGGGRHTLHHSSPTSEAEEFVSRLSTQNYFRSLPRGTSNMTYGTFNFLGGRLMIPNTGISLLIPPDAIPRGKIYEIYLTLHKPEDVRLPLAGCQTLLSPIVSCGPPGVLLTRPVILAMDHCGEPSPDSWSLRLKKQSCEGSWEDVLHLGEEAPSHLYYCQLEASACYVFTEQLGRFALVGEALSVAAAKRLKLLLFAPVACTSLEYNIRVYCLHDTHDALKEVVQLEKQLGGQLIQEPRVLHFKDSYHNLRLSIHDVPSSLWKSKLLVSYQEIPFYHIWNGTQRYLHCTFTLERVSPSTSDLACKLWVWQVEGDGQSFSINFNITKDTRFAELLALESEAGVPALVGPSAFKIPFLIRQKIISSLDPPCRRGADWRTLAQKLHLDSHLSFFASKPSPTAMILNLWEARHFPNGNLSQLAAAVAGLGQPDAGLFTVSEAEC

[3] = target: T3, UNC5D (human, UniProt Q6UXZ4)
T3 construct: expressed on cells; also called UNC5D expressed on cells
T3 sequence (cell-surface-expressed binding partner, looked up): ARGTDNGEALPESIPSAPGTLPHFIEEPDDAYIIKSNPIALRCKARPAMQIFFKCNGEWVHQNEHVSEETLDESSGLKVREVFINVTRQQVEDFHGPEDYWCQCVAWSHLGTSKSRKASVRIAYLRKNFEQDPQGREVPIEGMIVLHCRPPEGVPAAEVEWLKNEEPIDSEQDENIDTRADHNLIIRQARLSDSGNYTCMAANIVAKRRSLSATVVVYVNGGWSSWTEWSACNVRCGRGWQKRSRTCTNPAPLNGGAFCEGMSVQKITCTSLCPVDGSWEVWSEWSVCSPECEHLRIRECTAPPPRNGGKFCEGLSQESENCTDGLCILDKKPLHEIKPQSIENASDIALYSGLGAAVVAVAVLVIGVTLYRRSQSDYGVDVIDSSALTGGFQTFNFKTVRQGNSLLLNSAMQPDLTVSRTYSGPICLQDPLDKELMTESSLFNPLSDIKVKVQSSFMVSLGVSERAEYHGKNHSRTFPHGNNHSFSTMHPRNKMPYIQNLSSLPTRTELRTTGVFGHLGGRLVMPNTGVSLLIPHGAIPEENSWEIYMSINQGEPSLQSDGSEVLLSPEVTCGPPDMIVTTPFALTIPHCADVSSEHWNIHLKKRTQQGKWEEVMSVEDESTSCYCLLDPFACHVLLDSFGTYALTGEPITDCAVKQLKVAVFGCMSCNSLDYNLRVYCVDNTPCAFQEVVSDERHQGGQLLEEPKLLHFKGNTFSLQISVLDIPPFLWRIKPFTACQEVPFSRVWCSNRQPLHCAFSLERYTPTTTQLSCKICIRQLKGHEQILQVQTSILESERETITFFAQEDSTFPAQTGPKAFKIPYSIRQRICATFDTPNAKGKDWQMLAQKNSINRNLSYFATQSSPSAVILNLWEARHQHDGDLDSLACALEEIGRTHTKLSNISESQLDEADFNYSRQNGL

Binder | binding result [1] | binding result [2] | binding result [3]
B1 | binds |  | 
B2 |  | binds | binds

From patent US20220119490A1 (Genentech, published 2022)
